Test results: patent US20030049796A1

Biological target: Recombinant active caspase-9 (catalytic domain) (mammalian) (UniProt P55211)
Assay: cell-based or functional assay

Chain of UniProt P55211 (P55211 139-416 limits assumed): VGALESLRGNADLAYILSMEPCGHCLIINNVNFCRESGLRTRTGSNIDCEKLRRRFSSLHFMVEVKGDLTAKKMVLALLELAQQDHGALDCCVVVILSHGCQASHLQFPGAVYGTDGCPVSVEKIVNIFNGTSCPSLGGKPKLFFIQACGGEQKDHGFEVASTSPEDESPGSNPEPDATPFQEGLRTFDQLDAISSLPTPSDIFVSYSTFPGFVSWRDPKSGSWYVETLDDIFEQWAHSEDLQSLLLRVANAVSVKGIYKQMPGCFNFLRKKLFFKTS

- caspase-9 activity: AFC release from Ac-LEHD-AFC (100 uM); 0.2 uM caspase-9, 0.2-1.6 uM BmIAP, 37 C (fold molar excess): 8
Substance: GST-BmIAP (recombinant purified Bombyx mori inhibitor of apoptosis protein, glutathione S-transferase fusion)
